Measurements published in patent US20170152308A1 (Biogen, published 2017).
Like-named read-outs stand apart in the source and are kept apart here.

Assays:
[1] = biological target: T1, 6xHis-SUMO-TDP-43 (220-414) (human, UniProt Q13148 220-414); assay: capture ELISA, antigen held by anti-6xHis antibody
T1 construct: Captured on the plate by an anti-6xHis antibody; also called 6xHis/SUMO tagged truncated TDP-43; not shown: N-terminal 6xHis and SUMO tags from a modified pET19-b vector
Summary of the method: (§1)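 Anti-6×His antibody captured 6×His-SUMO-TDP-43 (1.7 μM, 1 hr RT) in PBS with 1% BSA, 300 mM arginine and 0.1% PEG 5000, pH 7.5, avoiding direct adsorption. Three-fold antibody titrations were incubated 1 hr RT and detected with HRP anti-human IgG Fc colorimetrically. EC₅₀ from a four-parameter logistic fit.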

[2] = biological target: T2, 6xHis-SUMO-TDP-43 (1-414), properly folded full length (human, UniProt Q13148 1-414); assay: capture ELISA, antigen held by anti-6xHis antibody
T2 construct: Purified with KSCN and arginine, monomeric; captured on the plate by an anti-6xHis antibody; also called folded full-length TDP-43; 6xHis/SUMO tagged full length TDP-43; not shown: N-terminal 6xHis and SUMO tags from a modified pET19-b vector
Summary of the method: as §1

[3] = biological target: T3, His-huTDP-43 domain II (amino acid residues 99-204) (human); assay: direct ELISA, coated antigen
T3 construct: Amino terminal His-tagged fragment, E. coli
T3 chain: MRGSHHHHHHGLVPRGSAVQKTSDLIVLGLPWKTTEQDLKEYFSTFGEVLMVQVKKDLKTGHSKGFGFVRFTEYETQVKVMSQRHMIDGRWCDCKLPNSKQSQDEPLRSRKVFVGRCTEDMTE

[4] = biological target: T4, His-huTDP-43 domain III (amino acid residues 183-273) (human); assay: Western blot, 300 ng recombinant protein per lane, primary antibody 10 nM
T4 construct: Amino terminal His-tagged fragment, E. coli
T4 chain: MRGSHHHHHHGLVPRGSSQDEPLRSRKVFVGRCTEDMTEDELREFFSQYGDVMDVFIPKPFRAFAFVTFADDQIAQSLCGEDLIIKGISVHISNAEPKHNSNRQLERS
Method: (§2) Non-specific binding sites were blocked for 1 hr. at room temperature with PBST containing 2% BSA (Sigma, Buchs, Switzerland). Blots were incubated overnight with primary antibodies (10 nM) followed by either a donkey anti-human IgGγ-specific secondary antibody conjugated with HRP (Jackson ImmunoResearch, USA) or a goat-anti mouse IgG (H+L)-specific secondary antibody conjugated with HRP (Jackson ImmunoResearch, USA). Blots were developed using ECL and ImageQuant 350 detection (GE Healthcare, Otelfingen, Switzerland).

[5] = biological target: T5, His-huTDP-43 domain IV (amino acid residues 258-414) (human, UniProt Q13148 258-414); assay: as above
T5 construct: Amino terminal His-tagged fragment, E. coli, solubilized in 8 M urea; also called Glycine-rich domain
Method: as §2

[6] = biological target: T6, His-huTDP-43 domain I (amino acid residues 2-106) (human); assay: direct ELISA, TDP-43 fragments coated at 6.6 ug/ml, OD 450
T6 construct: Amino terminal His-tagged fragment, E. coli; also called N-terminal domain
T6 chain: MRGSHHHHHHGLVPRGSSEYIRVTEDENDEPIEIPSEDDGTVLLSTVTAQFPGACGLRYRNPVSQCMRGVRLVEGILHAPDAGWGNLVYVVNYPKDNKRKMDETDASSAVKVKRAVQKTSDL
Method: (§3) Non-specific binding sites were blocked for 1 hr. at room temperature with PBST containing 2% BSA (Sigma, Buchs, Switzerland). Antibodies were incubated 1 hr. at room temperature. Binding was determined using either a donkey anti-human IgGγ-specific antibody conjugated with HRP (Jackson ImmunoResearch, USA) or a goat-anti mouse IgG (H+L)-specific secondary antibody conjugated with HRP (Jackson ImmunoResearch, USA)., followed by measurement of HRP activity in a standard colorimetric assay.

[7] = biological target: T7, recombinant full-length His-tagged human TDP-43 (2-414) (human, UniProt Q13148 2-414); assay: direct ELISA, coated antigen
T7 construct: Amino terminal His tag, made in E. coli, purified in 8 M urea; also called full length TDP-43; full-length TDP-43
Summary of the method: (§4)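 Plates coated overnight at 4° C with full-length TDP-43 at 5 μg/ml in carbonate buffer pH 9.6, with E. coli extract and BSA coated alongside. After blocking with 2% BSA, antibodies incubated 1 hr at room temperature and detected by HRP anti-human IgGγ colorimetric read-out. EC₅₀ from non-linear regression.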

[8] = biological target: T3, His-huTDP-43 domain II (amino acid …); assay: direct ELISA, His-tagged TDP-43 fragments coated at 6.6 ug/ml, OD 450
Method: as §3

[9] = biological target: T4, His-huTDP-43 domain III (amino acid …); assay: as above
Method: as §3

[10] = biological target: T5, His-huTDP-43 domain IV (amino acid …); assay: as above
Method: as §3

[11] = biological target: T6, His-huTDP-43 domain I (amino acid …); assay: direct ELISA, coated antigen; direct ELISA, domain coated at 6.6 ug/ml (Example 1, FIG. 2H)
Method: as §3
The polypeptides were coated onto ELISA plates at equal coating concentration of 6.6 μg/ml (recombinant TDP-43 and TDP-43 fragments) or 3.3 μg/ml (synthetic peptides). Binding of the human-derived antibodies was determined by direct ELISA.

[12] = biological target: T7, recombinant full-length His-tagged …; assay: direct ELISA, coated antigen; remark: listed apart in the source
Summary of the method: as §4

[13] = biological target: T4, His-huTDP-43 domain III (amino acid …); assay: direct ELISA, coated antigen
[14] = biological target: T8, TDP-43 in human FTLD-U (and ALS) patient tissue sections (human, UniProt Q13148 1-414, limits assumed); assay: immunohistochemistry, FTLD-U case hippocampus
T8 construct: Target of immunohistochemistry; the forms present are not defined; also called pathologic TDP-43; cytoplasmic, nuclear, neuritic TDP-43 in FTLD-U case tissue

[15] = biological target: T3, His-huTDP-43 domain II (amino acid …); assay: Western blot
Method: as §2
(§5) Commercially available TDP-43 specific antibody TARDBP (M01), clone 2E2-D3 (Abnova, Taiwan) was used as positive control for human TDP-43 detection whereas, an anti-human IgG Fcγ-specific antibody was used as a negative control. Binding of the human-derived antibodies to specific TDP-43 domains was determined by Western Blot analysis.

[16] = biological target: T4, His-huTDP-43 domain III (amino acid …); assay: Western blot
Method: as §2, §5

[17] = biological target: T6, His-huTDP-43 domain I (amino acid …); assay: Western blot
Method: as §2, §5

[18] = biological target: T5, His-huTDP-43 domain IV (amino acid …); assay: Western blot
Method: as §2, §5

[19] = biological target: T4, His-huTDP-43 domain III (amino acid …); assay: direct ELISA, TDP-43 fragments coated at 6.6 ug/ml, OD 450
Method: as §3

[20] = biological target: T5, His-huTDP-43 domain IV (amino acid …); assay: as above
Method: as §3

[21] = biological target: T3, His-huTDP-43 domain II (amino acid …); assay: direct ELISA, coated antigen; direct ELISA, domain coated at 6.6 ug/ml (Example 7, FIG. 5H)
Method: as §3
(§6) Binding of the human-derived antibodies was determined by direct ELISA.

[22] = biological target: T6, His-huTDP-43 domain I (amino acid …); assay: direct ELISA, coated antigen; direct ELISA, domain coated at 6.6 ug/ml (Example 7, FIG. 5M)
Method: as §3, §6

[23] = biological target: T3, His-huTDP-43 domain II (amino acid …); assay: direct ELISA, TDP-43 fragments coated at 6.6 ug/ml, OD 450
Method: as §3

[24] = biological target: T6, His-huTDP-43 domain I (amino acid …); assay: direct ELISA, coated antigen; direct ELISA, domain coated at 6.6 ug/ml (Example 7, FIG. 5)
Method: as §3, §6

T2 sequence (Q13148 whole entry): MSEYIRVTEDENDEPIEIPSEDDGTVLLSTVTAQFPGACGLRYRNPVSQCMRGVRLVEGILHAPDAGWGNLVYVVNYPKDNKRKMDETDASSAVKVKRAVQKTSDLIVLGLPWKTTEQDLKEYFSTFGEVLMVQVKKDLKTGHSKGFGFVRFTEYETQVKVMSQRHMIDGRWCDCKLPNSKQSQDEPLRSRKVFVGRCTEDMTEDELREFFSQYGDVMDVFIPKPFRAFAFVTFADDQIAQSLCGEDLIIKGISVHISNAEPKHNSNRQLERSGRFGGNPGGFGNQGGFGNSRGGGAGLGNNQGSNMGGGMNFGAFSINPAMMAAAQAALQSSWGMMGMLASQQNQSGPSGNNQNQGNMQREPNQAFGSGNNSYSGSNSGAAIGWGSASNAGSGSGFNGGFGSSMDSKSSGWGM
T8 sequence (Q13148 whole entry): as above

B1: NI-205.31C11 (antibody, human IgG1, V domains shown)
VH: QVQLVESGGGVVQPGRSLRLSCVASGFTFDNYGMHWVRQAPGKGLEWLAVISYGGDHQFYGDSVKDRFTISRDNSKNTAYLQMHSLRPDDTAVYYCATGVTPDFWGQGTLVTVSS
VL: DVVMTQSPLSLPVTLGQPASISCRSSQSLVHSDGNTYLNWFQQRPGQSPRRLIYKVSHRDSGVPDRFSGSGSGTDFTLKISRVEAEDVGVYYCLQGTHWPPFTFGQGTKLEIK
notes: Human-derived
binding result [1]: no binding
EC50 [2]: 21.1 nM
binding result [3]: binds
binding result [4]: no binding (tested: 10 nM)
binding result [5]: no binding (tested: 10 nM)
binding result [6]: no binding
EC50 [7]: 11 nM

B2: NI-205.87E7 (antibody, human IgG1, V domains shown)
VH: EVQLLESGGGLVQPGGSLRLSCAASGFTFSSYAMSWVRQAPGKGLEWVSAISGGGDRTYSADSVKGRFTISRDNSKNTLYLQINSLRVEDTAVYYCAQGGGGEMTAVTMDGTYYGMDVWGQGTTVTVSS
VL: QSALTQPRSVSGSPGQSITISCTGTSSNVGTYKFVSWYQQHPGKAPKLMIYDVTKRPSGVPDRFSGSKSGNTASLTISGLQAEDEADYYCCSYAGSYTYVFGSGTKVTVL
notes: Human-derived
binding result [1]: no binding
binding result [8]: no binding
binding result [9]: no binding
binding result [10]: no binding
binding result [11]: binds
EC50 [12]: 17.2 nM
EC50 [7]: 17.2 nM

B3: NI-205.98H6 (antibody, human IgG1, V domains shown)
VH: EVQLLESGGALVQPGGSLRLSCAASGLTFSRHAFSWVRQAPGKGLEWVAISSGSGGNTYYAASVKGRFTISRDESKNTLYLQMNSLRVEDTALYYCAKEVLEWSLLSRYMDVWGKGTTVTVSS
VL: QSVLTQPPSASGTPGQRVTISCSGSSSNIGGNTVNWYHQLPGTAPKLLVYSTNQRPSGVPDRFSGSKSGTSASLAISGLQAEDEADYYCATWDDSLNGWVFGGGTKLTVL
notes: Human-derived
EC50 [1]: 20 nM
EC50 [2]: 46 nM
binding result [13]: binds
binding result [6]: no binding
EC50 [7]: 2.6 nM

B4: NI-205.20A1 (antibody, V domains shown)
VH: EVQLVESGGGLVQPGGSLRLSCAASGFTFSSYRMNWVRQAPGKGLEWVSYISTSSSTIYYADSVKGRFTISRDNAKNSLYLQMNSLRAEDTAVYYCARAFDYWGQGTLVTVSS
VL: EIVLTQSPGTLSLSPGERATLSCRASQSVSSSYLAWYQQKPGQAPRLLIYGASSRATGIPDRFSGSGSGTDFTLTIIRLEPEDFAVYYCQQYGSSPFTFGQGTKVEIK
notes: Human-derived
binding result [2]: no binding
binding result [14]: no binding (tested: 50 nM)
binding result [7]: no binding
binding result [15]: no binding (tested: 10 nM)
binding result [16]: no binding (tested: 10 nM)
binding result [17]: no binding (tested: 10 nM)
binding result [18]: no binding (tested: 10 nM)

B5: NI-205.38H2 (antibody, human IgG1, V domains shown)
VH: EVQLVESGGDLVQPGGSLRLSCTASGFNLGDYWMHWVRQVPGKGLVWVSRISSDGASVSYADFVEGRFTISRGNARNTLFLELNSLRLDDTAVYYCAMGVVWGQGTLVTVSS
VL: SYELTQPPSVSVSPGQTATISCSGDALPKRYAYWYKQKSGQVPVLIIYEDNKRPSGIPARFSGSSSGTMATLTITGAQVDDEADYYCYSSDNSDTYSVFGGGTKLTVL
notes: Human-derived
binding result [1]: no binding
EC50 [2]: > 120 nM
binding result [19]: no binding
binding result [6]: no binding
binding result [20]: no binding
binding result [21]: binds
EC50 [7]: 8.2 nM

B6: NI-205.8C10 (antibody, human IgG1, V domains shown)
VH: EVQLVESGGGLVNPGGSLRLSCTASGFSFSTYSMNWVRQAPGKGLEWVSLITSSGSYIYYADSVKGRFTISRDDAKNSLYLQMNSLRAEDTAVYYCANMLAAAGSHYFHYWGQGTLVTVSS
VL: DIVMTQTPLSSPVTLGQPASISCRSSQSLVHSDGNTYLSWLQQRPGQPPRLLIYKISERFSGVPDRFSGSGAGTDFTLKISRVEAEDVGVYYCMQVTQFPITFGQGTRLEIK
notes: Human-derived
binding result [22]: binds
binding result [23]: no binding
binding result [19]: no binding
binding result [20]: no binding
EC50 [7]: 15.6 nM

B7: NI-205.29E11 (antibody, human IgG1, V domains shown)
VH: QVQLVQSGAEVKKPGASVKVSCKASGYIFTDYFIHWIRQAPGQGLEWMGWIKPKSGGTDYAEKFQGRVTLTRDTSITTVYMELSRLNSDDTAVYYCARLKYSVPDSDYWGQGTLVTVSS
VL: DVVMTQSPLSLPVTLGQSASISCRSSQGLVHSDGNTYLNWFHQRPGQSPRRLIYKVFNRDSGVSDRFSGSGSGSDFTLMISRVEAEDVGIYYCMQGTLWPLTFGQGTKVEIK
notes: Human-derived
EC50 [1]: > 97 nM
EC50 [2]: > 100 nM
EC50 [7]: 10.4 nM
binding result [24]: binds
